The source of these data is patent US20170362330A1.

Assay [1] deals with human CD46 (human) (UniProt P15529). The assay is described as follows: FACS on Du-145 cells, 4 °C overnight, MFI curve fit.
Assay [2] concerns the target human CD46 (human), P15529. The assay is described as follows: cell-based or functional assay.
Assay [3] has as its target human CD46 (human) (UniProt P15529). The assay is described as follows: FACS on CHO-huCD46 cells, 4 C overnight, MFI against antibody concentration.
Assay [4] shares this target. The assay can be described thus: FACS on CHO cells transfected with human CD46, 4 °C overnight, MFI curve fit.

Chain of human CD46 (human) (P15529 35-392): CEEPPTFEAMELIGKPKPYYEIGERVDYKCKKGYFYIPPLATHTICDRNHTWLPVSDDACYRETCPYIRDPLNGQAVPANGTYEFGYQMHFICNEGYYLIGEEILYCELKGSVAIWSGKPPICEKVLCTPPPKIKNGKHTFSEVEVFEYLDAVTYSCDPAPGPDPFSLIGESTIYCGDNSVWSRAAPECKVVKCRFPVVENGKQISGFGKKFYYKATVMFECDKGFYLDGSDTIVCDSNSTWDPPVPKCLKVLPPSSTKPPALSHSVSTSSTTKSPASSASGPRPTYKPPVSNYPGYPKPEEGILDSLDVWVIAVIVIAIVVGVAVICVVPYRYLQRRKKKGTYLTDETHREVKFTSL
Chain of human CD46 (human), P15529 (P15529 35-392): as above

B1: YS12 (antibody, V domains shown)
VH: QVQLVESGGGVVQPGRSLRLSCAASGFTFSTYGMHWVRQAPGKGLEWLSFISYDGDEKYYADSVKGRFTISRDNSKNTLYLQMNSLRAEDTAVYWCAKASGYGMGILDYWGQGTLVTVSS
VL: SSELTQDPAVSVALGQTVRITCQGDSLRSYYVSWFQQKPGQAPVFVMYGQNNRPSGISERFSGSSSGNTASLIITGAQAEDEADYYCHSRDSSGTHLRVFGGGTKLTVL
What is called Kd is the free concentration of one partner at which half of the binding sites on the other are occupied at equilibrium, for simple one-to-one binding. Low values mean tighter binding, high ones weaker binding. B1 registered a Kd with human CD46 (human) [1] of 0.043 nM.

B2: YS5-mcvcpab-MMAF (protein)
VH: QVQLVQSGGGVVQPGRSLRLACAASGLTVNNYAMHWVRQAPGKGLEWVAVISYDGNNKYYADSVKGRFTISRDNSKNTLYLQMNSLRAEDTAVYYCAKGGGYFDLWGRGTLVTVSS
VL: QSVLTQPPSVSGAPGQRVTISCTGSSSNIGAGYDVHWYQQLPGTAPKLLIYGNNNRPSGVPDRFSGSKSGTSASLAITGLQAEDEADYYCSSYTSGTWLFGGGTKLTVL
modifications: here or on the partner: monomethyl auristatin F (MMAF) conjugated via the MC-vc-PAB linker, on average about 3 drugs per antibody molecule; attachment residues not stated
For B2, in assay [2], the EC50 of cell killing, LNCaP C4-2B cells with prior exposure to abiraterone (CD46 upregulated), 96 hours is 0.021 nM; the EC50 of cell killing, LNCaP C4-2B cells without prior exposure to abiraterone, 96 hours was determined as 0.169 nM; the cytotoxic activity on H660 cells in vitro (Calcein AM viability, 7 days) was under 1 nM; the fold drop of killing EC50 on H660 cells after enzalutamide treatment was 4 to 5 fold.

B3: YS5 (antibody, V domains shown)
VH: B2 VH
VL: B2 VL
By EC50 (read off the curve) is commonly meant the concentration at which the effect is half-maximal. As for B3, the 50% effective concentration (EC50 (read off the curve)) with human CD46 (human) [3] was determined as 1 nM. In addition, the dissociation constant (Kd) with human CD46 (human) [4] turned out to be 0.867 nM; in the assay with human CD46 (human) [1], 2.19 nM.
